These results are taken from the nanobody polyreactivity screen of Harvey et al. (2022).

This data set in a line: yeast display, Sf9 membrane polyspecificity reagent, FACS + sequencing; frameworks hold sequencing errors. The procedure, abridged: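 In a synthetic yeast display library (Saccharomyces cerevisiae BJ5465), nanobody expression was induced with galactose for 36–48 hours. FACS gates were set low and high (top ~1%) using anti-HA fluorescence for expression and streptavidin fluorescence for binding of the Sf9 membrane reagent. Each polyreactivity label is drawn from the gate of origin.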
Consider “QVQLVESGGGLVQAGGRLRLSCAASGSTFWYYAMGWYRQAPGKEREFVAGISTSGVSTYYADSVKGRFTISRDNAKNTVYLQMNSLKPEDTAVYYCAADYIFRRAGWYLMDYWGQGTQVTVSS”, for which the “polyreactivity (PSR sort gate)” value was “high polyreactivity”.
Then “QVQLVESGGGLVQAGGRLRLSCAASGSTFYWNTMGWYIQAPGKERELVAAISRRGGSTYYADSEKGRFTISRDNAKNTVYLQMNSLKPEETAVYYCNKLLSQRRYHSEMDYWGQGTQVTVSS”, with “high polyreactivity”; and “QVQLVESGGGLVQAGGRLRLSCAASGSTIPRYAMGWSRQAPGKERELVAAITNGGSTNYADSVKGRFTISRDNAKNTVYLQMNSLKPEDTAVYYCAKRFGYRFYYGGQGTQVTVSS”, with “high polyreactivity”.
Then “QVQLVESGGGLVQAGGRLRLSCAASGTIFGPYAMGWYRQAPGKEREFVAAISRSGTRTNYADSVKGRFTISRDNAKNTVYLQMNSLKPEDTAVYYCAAGYYGPDPRNRYRYNYWGQGTQVTVSS”, with “high polyreactivity”.
Turning to “QVQLVESGGGLVQAGGRLRLSCAASGYIFSRYAMGWYRQAPGKERELVAAISKSGSSTYYADSVKGRFTISRDNAKNTVYLQMNSLKPEDTAVYYCATSYSVGYDYWGQGTQVTVSS”, the “polyreactivity (PSR sort gate)” value is reported as “high polyreactivity”.
With “QVQLVESGGGLVQAGGRLRLSCAASGYTFVVNAMGWYRQAPGKERELVAAITGGDSTNYADSVKGRFTISRDNATNTVYLQMNSLKPEDTAVYYCAKRDVLPFQTVTGSRNDYWGQGTQVTVSS” the entry was “low polyreactivity”.
With “QVQLVESGGGLVQAGGRLRLSCAASVRIFRVYAMGWYRQEPGKERELVAAISWSGGRTYYADSVKGRFTISRDNAKNTVYLQMNSLKPEHTAVYYCAAVSGYALGYDYWGQGTQVTVSS” the entry was “high polyreactivity”; with “QVQLVESGGGLVQAGGRLRLSCAASVSIFNPYTMGWYRQAPGKERELVAAISYRGGSTYYADSVKGRFTISRDNAKNTVYLQMNSLKREDTAVYYCAAQVRYLGYRYDYWGQGTQVTVSS”, “high polyreactivity”.
Take “QVQLVESGGGLVQAGGRLRLSCADSGRTFYYYAMGWYRQAPGKERELVAAIRWRATSTFYADSVKGRFTISRDNAKNTVYLQMNSLKPEDTAVYYCATTGGYRLQAQKYYYWGQGTQVTLSS”: the “polyreactivity (PSR sort gate)” value is reported as “high polyreactivity”.
Consider “QVQLVESGGGLVQAGGRLRLSCAPSGRIFVYNAMGWYRQAPGKERELVAAINSGDSTYYADSVKGRFTISRDNAKKTVYLQMNSLKPEDTAVYYCARDGWAFSIYYDLDYWGQGTQVTVSA”, for which the “polyreactivity (PSR sort gate)” value is recorded as “low polyreactivity”.
With “QVQLVESGGGLVQAGGRLRLSCASSGIIFRYNAMGWYRQAPGKERELVAAISSSGTTNYADSVKGRFTISRDNAKNTVYLQMNSLKPEDTAVYYCAARRSYARRFKNSMEYWGQGTQVTVSS” the entry was “high polyreactivity”; with “QVQLVESGGGLVQAGGRLRLSCATSGYIFYDYDMGWYRQAPGKERELVAAIRRSTGTTYYADSVKGRFTISRDNEKNTVYLLMISLKPESTAVYYCAALFRPRVHRYDYWGQGTQVTVSS”, “low polyreactivity”; with “QVQLVESGGGLVQAGGRLRLSCSASGLTVYRKAMGWSRQAPGKEREMVAAITSSGGRTYYADSVKGRFTISRDNAKNTVYLLMNSLKAEDTALYYCAADFCLGYYYWGQGTQVTVSS”, “high polyreactivity”.
With “QVQLVESGGGLVQAGGRLRLTCAASGFTFGRYAMGWYRQAPGKERDLVADITSGSGGTYYADSVKGRFTISRATAKNSVYLQMNSLKPEDTAVYYCATGSRSRGALRYAHFDFWGQGTQVSVSS”, the “polyreactivity (PSR sort gate)” value is “high polyreactivity”.
Then “QVQLVESGGGLVQAGGRLRLTCAASGSIFLEYTMGWSRQAPGKEREVVASISWGGGSTYYADSVKGRFTISRDNAKNTVYLQMNSLKPEDTAVYYCAAVTKLSGIRYNYWGQGTQVTVSS”, with “low polyreactivity”.
Then “QVQLVESGGGLVQAGGRLRLTCAASGSIFPTYDLGWYRQAPGKERELVAAIRGDGSTNYADSVKGRFTISRDNAKNTVYVQMNSLKPEDTAVSYCAAVSSEYVFRYGGYWGQGTQVTVSS”, with “low polyreactivity”; and “QVQLVESGGGLVQAGGRLSLSCAASGSTFAYYAMGWYRQAPGKERELVAGITWTGGSTYYADSVKGRFTNSRDNAKNTVYLQMNSLKPEDTAVYYCAVTYPYGYEYDHWGQGTQVTVSS”, with “low polyreactivity”; and “QVQLVESGGGLVQAGGSGRLSCAASGITCAYYAMGWYRQAAGKERELVAVITSGGRPNYADSVKGRVTISRDNAKNTVYLQMNSLKPEDTAVYYCAAYRSSKTLRRGYYYWGQGTQVTGSS”, with “high polyreactivity”.
Then “QVQLVESGGGLVQAGGSHRISCAASGLTFFRNAMGWYRQAPGKERELVATITSTSSTNYADSVKGRFTISRDNAKNKVYLQMYSVKPEDTAVYYCNARVYYKYVGRMYYWGQGTQVTVSS”, with “high polyreactivity”; and “QVQLVESGGGLVQAGGSHRISCAASGRTFARYVMGWYRQAPGKERELVAAISRSGGTYYADSVKGRFTISRDNAKNTVYLQMNSLKPEDTAVYYCRIPSHGGVYWGQGTQVTVSS”, with “high polyreactivity”.
Turning to “QVQLVESGGGLVQAGGSHRLRCAASGLIIGDYGMGWYRQAPGKERELVAAITDRGGTTYYADSVKGRFTISRDNAKNTVYFQMNSLKPEDTAVYYCIARQSDIFDYDYWGQGSQVTVSS”, the “polyreactivity (PSR sort gate)” value is listed as “low polyreactivity”.
With “QVQLVESGGGLVQAGGSHRLSCAASGFIFSYYAKGRYRQAPGKERELVAAISSSGGTTYADSVKGRFTISRDNAKNTVYLHMNSLKPEDTAVYYCARVQYWFYKPMYYWGQGTQVTVSS” the entry was “high polyreactivity”; with “QVQLVESGGGLVQAGGSHRLSCAASGFIFSYYAMGWYRQAPGKERELVAAITDSGGSTYYADSVKGRFTISRDNAKNTVYLQMNSLKPEDTAVYYCAATYWWAYVWAYSHVKSTNDYWGQGTQVTVSS”, “low polyreactivity”; with “QVQLVESGGGLVQAGGSHRLSCAASGFTFYRYAMGSYRQAPGKERELVAAITGGGSTYYADSVKGRFTISRDNAKNTVYLQMNSLKPVDTAVYYCNAYHIVIYDYWGQGTQVTVSS”, “low polyreactivity”.
For “QVQLVESGGGLVQAGGSHRLSCAASGFTINFYSMGWYRQAPGKERELVAAITASGGGSTYYADSVKGRFTISRDNAKNTVYLQMNSLKPEDTAVYYCNADYTGSFYTYDYWGQGTQVTVSS”, the “polyreactivity (PSR sort gate)” value was “low polyreactivity”.
Then “QVQLVESGGGLVQAGGSHRLSCAASGGTFDDYALGWYRQAPGKERELVAAISSSGGSTYYADSVKGRFTISRDNAKNTVYLQMNSLKPEDTAVYYCAVDAYWRLWYYPYESHHDYWGQGTQVTVSS”, with “low polyreactivity”; and “QVQLVESGGGLVQAGGSHRLSCAASGITFNVYAMGWYRQATGKERELVAAISYNGGRTYYADSVKGRFTISRDNAKNTVYLQMNSLKPEDTAVYYCNTVSLSLRYDYWGQGTQVTVSS”, with “high polyreactivity”; and “QVQLVESGGGLVQAGGSHRLSCAASGLTFDHYAMGWYRQAPGKERELVAAISRTGTRTYYADSVKERFTISRDNAKNTVYLQMNSLKPEDTAVYYCNAGTYWQGDSYDYWGQGTQVTVSS”, with “low polyreactivity”.
With “QVQLVESGGGLVQAGGSHRLSCAASGRIFVYYPRGWYRQAPGIETELVAAINAGRSTNYADSVKGRFTNSRDNAKNNVYLQMNSLKLQDTAVYFCAAVRRSRYSYRGYYWGQGTQVTVSS” the entry was “high polyreactivity”; with “QVQLVESGGGLVQAGGSHRLSCAASGRIIGYNPMGWYRQAPGKERELVASIRYSGGSTYYADSVKGRFTISRDNAKNPVYLQMNSLKPEDTAVYYCATRVTYRRRFDYWGQGTQVTVSS”, “high polyreactivity”; with “QVQLVESGGGLVQAGGSHRLSCAASGRIYGDYAMGWYRQAPGKERELVAAINSSGTSTIYADSVKGRFTISRDNAKNTVYLQLNCLKPEDTAVYYCADLFTFKYDYWGQGTQVTVSS”, “low polyreactivity”.
Then “QVQLVESGGGLVQAGGSHRLSCAASGRLFSWNAMGWYRQAPGTERELVAAITNGGGTYYADSVKGRFTISRDNAKNTVYLQMNSLKPEDTAVYYCNAYRRKLWYPTGLYWGQGTQVTVSS”, with “high polyreactivity”.
For “QVQLVESGGGLVQAGGSHRLSCAASGRTFEYNAMGWYRQAPGKERELVATITRASTNYADSVKGRFTISRDNAKNTVYLQMNSLKPEDTAVYYCNARARGRRYPYSKYYYWGQGTQVTVSS”, the “polyreactivity (PSR sort gate)” value is reported as “high polyreactivity”.
As to “QVQLVESGGGLVQAGGSHRLSCAASGRTFEYNGKGWYRQAPGKERELVAAITRGGSTYYADSVKGRFTISRDNAKNTVYLQMNSLKPEDTAVYYCAAEVGWSRYKWLEYWGQGTQVTVSS”, the “polyreactivity (PSR sort gate)” value was “low polyreactivity”.
With “QVQLVESGGGLVQAGGSHRLSCAASGRTFPGNAMGWYRQAPGKERDLVAAITSSGDTDYADSVKGRFKISRDNAKNTVDLQMNSLKTEDRAVYYCAKGYSYGRPWDIYYYWGHGTQVTVSS” the entry was “low polyreactivity”; with “QVQLVESGGGLVQAGGSHRLSCAASGRTFPGNAMGWYRQAPGKERELVAAISWSGTRTYYADSVKGRFTISRDNAKNTVYLQMNSLKPEDTAVYYCNVVVKGAWDYYPYDYWGQGTQVTVSS”, “high polyreactivity”.
With “QVQLVESGGGLVQAGGSHRLSCAASGSIFIRYAMGWYRQAPAKERELVASITSGGSTYYADSVKGRFTISRDNEKNTVYLQMNSLKPEDTSVYYCNALPYRYRRYDYWGQGTQVTVSS” the entry was “low polyreactivity”; with “QVQLVESGGGLVQAGGSHRLSCAASGSIFYPYPMGLYRQAPGKERELVAAITTRDDSTRYADSVKGRFTISRDNAKNTGYLQMNTLKPEDTAVYYCNTDYGPVFGQYYWYELDYWGQGTQVNVSS”, “low polyreactivity”; with “QVQLVESGGGLVQAGGSHRLSCAASGSTFAGNAMGWYRQAPGKERELVAAISGSGGITYYADSVKGRFTISRDNAKNTVYLQMNSLKPEDTAVYYCNAYYWFSRYGYWGQGTQVTVSS”, “high polyreactivity”.
Then “QVQLVESGGGLVQAGGSHRLSCAASGSTFDYYAMGWYRQAPGKERELVAAITFSGDRTYYADSVKGRFTISRDNAKNTVYLQMNSLKPEDTAVYYCAARWFVYRYIFDYWGQGTQVTVSS”, with “high polyreactivity”.
On to “QVQLVESGGGLVQAGGSHRLSCAASGSTFKDYAMVWYRQAPGKERELVASITESGGSTYYADSVKGRFTISRDNAKNTVYLQMNSLNPEDTAVYYCATDLIPEGSGYDYWGQGTQVTVSS”, for which the “polyreactivity (PSR sort gate)” value is reported as “low polyreactivity”.
